Target: T1, Mouse BAI3 N-terminal domain (NTD) encompassing residues 26-290 (mouse, UniProt Q80ZF8 26-290)
T1 construct: The vector encodes a 3C site, an Fc-tag and a C-terminal His tag after the NTD; the His tag lies after the 3C site and so was probably removed with the Fc; also called BAI3 NTD; BAI3 CUB domain; source: HEK293S GnTI- cells, BacMam virus (pVLAD8L), secreted, purified (Ni2+-NTA, 3C cleavage, SEC); not shown: Fc, C-terminal, cleaved
T1 sequence (looked up): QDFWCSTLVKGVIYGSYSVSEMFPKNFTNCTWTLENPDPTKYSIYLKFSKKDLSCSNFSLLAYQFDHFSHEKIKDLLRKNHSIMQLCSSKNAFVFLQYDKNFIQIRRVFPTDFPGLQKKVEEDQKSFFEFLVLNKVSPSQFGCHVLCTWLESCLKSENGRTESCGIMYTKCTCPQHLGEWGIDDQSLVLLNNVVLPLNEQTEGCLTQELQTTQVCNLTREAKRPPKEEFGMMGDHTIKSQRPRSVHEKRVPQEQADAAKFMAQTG
Assay: SEC; purified proteins mixed, size-exclusion chromatography and Coomassie-stained SDS-PAGE of fractions; 1x HBS (10 mM HEPES pH 7.2, 150 mM NaCl) with 2 mM CaCl2
Details: both partners purified

binding result: binds
B1: C1ql3 globular C1q-like domain (residues 122-255) (domain or fragment, mouse, UniProt Q9ESN4 122-255, looked up)
chain: STVPKIAFYAGLKRQHEGYEVLKFDDVVTNLGNHYDPTTGKFTCSIPGIYFFTYHVLMRGGDGTSMWADLCKNNQVRASAIAQDADQNYDYASNSVVLHLEPGDEVYIKLDGGKAHGGNNNKYSTFSGFIIYAD
notes: C1q-like 3 protein (C1ql3), mouse, C1q-like domain, residues 122-255; buffer contained 2 mM CaCl2; The tag is surmised from the Ni-NTA step; also called C1q-like domain trimer of C1ql3; C1ql3 C1q-like domain; source: Expi293F GnTI- cells, transfected (pEG BacMam), purified (Ni2+-NTA, SEC)
